Assay results taken from patent US20240148901A1.

Biological target: Recombinant gp120JR-FL (MyBioSource) (HIV)
Test: modified gp120 ELISA: gp120JR-FL coated plate, NanoLuc luminescence read-out

sensitivity of the gp120 ELISA: 500 pg/mL
Substance: secreted PGT121-NanoLuc, purified (antibody)
